Laboratory results from paper PMC4241985.

Molecular target: transmembrane domain of Thermus thermophilus MgtE (278-450) (Thermus thermophilus) (UniProt Q5SMG8)
Assay: crystal structure

stoichiometry N: 2
Substance: transmembrane domain of Thermus thermophilus MgtE (278-450) (from UniProt Q5SMG8 278-450) (domain or fragment)
